Data from US7446182 (University of Texas, dated 2008).
“And” between values parts separate entries of the source, which are not always exact repeats. Equal values may be shown once.

Legend:
[1] = molecular target: T1, Bacillus anthracis protective antigen (PA), 83 kDa polypeptide (Bacillus anthracis, UniProt P13423 30-764)
[2] = molecular target: T1, Bacillus anthracis protective antigen …; remark: listed apart in the source
[3] = molecular target: T1, Bacillus anthracis protective antigen …; remark: listed apart in the source

T1 sequence (P13423 30-764 limits assumed): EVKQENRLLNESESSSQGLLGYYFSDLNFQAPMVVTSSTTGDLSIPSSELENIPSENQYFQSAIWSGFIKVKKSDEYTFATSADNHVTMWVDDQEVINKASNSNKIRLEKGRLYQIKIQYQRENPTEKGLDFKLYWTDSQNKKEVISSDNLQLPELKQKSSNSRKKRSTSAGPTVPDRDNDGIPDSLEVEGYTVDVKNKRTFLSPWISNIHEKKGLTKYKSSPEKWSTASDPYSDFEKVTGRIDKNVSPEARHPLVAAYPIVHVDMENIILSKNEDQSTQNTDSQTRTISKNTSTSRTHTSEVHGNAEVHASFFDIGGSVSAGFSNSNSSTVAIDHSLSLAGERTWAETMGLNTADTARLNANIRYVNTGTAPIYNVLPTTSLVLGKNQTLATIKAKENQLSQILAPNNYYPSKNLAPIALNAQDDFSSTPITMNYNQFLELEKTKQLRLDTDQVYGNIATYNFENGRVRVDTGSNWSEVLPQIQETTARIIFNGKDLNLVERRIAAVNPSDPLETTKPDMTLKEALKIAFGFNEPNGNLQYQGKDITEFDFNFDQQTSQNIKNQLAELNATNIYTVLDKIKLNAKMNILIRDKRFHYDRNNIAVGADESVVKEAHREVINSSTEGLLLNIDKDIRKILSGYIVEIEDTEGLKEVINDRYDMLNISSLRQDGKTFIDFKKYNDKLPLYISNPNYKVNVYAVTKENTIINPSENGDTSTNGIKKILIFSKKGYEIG

B1: A2E scFv (scFv)
scFv: DIQMTQTTSSLSASLGDRVTISCRASQDIRNYLNWYQQKPDGTVKLLIYYTSRLQPGVPSRFSGSGSGTDYSLTISNQEQEDIGTYFCQQGNTLPWTGFFFTKLEIKRGGGGSGGGGSGGGGSGGGGSEVQLQQSGPELVKPGASVKISCKIDSGYAFSSSWMNWVKQRFGQGLEWIGRIYPGDGDTNYNGKFKGKATLTADKSSSTAYMQLSSLTSVDSAVYFCARSGLLRYAMDYWGQGTSVTVSS
**Q.** With B1 as the binder, how does the “fold higher affinity than the 14B7 scFv” value [1] read?
**A.** 3 fold

**Q.** And the “fold lower equilibrium dissociation constant than 14B7” value [1]?
**A.** 3 fold

**Q.** What about the Kd [2] of the same binder?
**A.** 4 nM

**Q.** And the koff [2]?
**A.** 0.001 s⁻¹

**Q.** What about the kon [2] of the same binder?
**A.** 300000 M⁻¹ s⁻¹

**Q.** And the “EC50 (read off the curve)” value [3]?
**A.** ~0.02 µg/mL and ~0.05 µg/mL
